The subject of one assay is caspase-9. Description: Caspase-9 activity in human corneal epithelial cells treated with TNF-α. The format is cell-based. The conditions noted are these: lacritin polypeptides 10 nM. The protocol: FIG. 13 graphically illustrates the ability of lacritin polypeptides (10 nM) to block TNFα induced caspase-9 activity in human corneal epithelial cells. The ordinate represents relative fluorescence units. White bars indicate 6 hours and diagonally-hatched bars indicate 9 hours.
Caspase-9 activity was measured in cells treated with various combinations of TNF-α, fragments of lacritin, and the PKC inhibitor Go6976. […] The PKC-α inhibitor Go6976 and C-25 fail to block this increase of the downstream initiator caspase-9.

The subject of a further assay is caspase-8. Put plainly: Caspase-8 activity in human corneal epithelial cells treated with TNF-α. Type of assay: cell-based. The protocol:
FIG. 12 graphically illustrates the ability of lacritin polypeptides to block TNFα induced caspase-8 activity in human corneal epithelial cells. The ordinate represents relative fluorescence units. White bars indicate 1 hour and diagonally-hatched bars indicate 6 hours.
(§1) Lacritin-induced proliferation and calcium signaling was studied in the human corneal epithelial (HCE) cell line. HCE cells were grown at 37° C. in DMEM F/12 supplemented with 10% FBS and 50 μg/ml gentamicin. Each experiment was done in a dose- and time-dependent manner using TNF-α (5-20 ng/ml) and lacritin (1-10 nM). Cell viability was measured spectrophotometrically at an absorbance of 570 nm using the MTT assay. Caspase-8 activity was detected fluorometrically by measuring cleavage of the fluorogenic substrate IETD-pNA at an excitation wavelength of 405 nm. Lacritin-induced cell proliferation was studied by H3-thymidine incorporation and via fluorescence-based detection of PKC, PLC and cAMP. Calcium signaling was detected by confocal microscopy of Fluo-4 loaded cells.

For assay [1], the system named is human corneal epithelial (HCE) cell line. Put plainly: TNF-α-induced cell death in HCE cells (MTT cell viability). The format is cell-based. The conditions noted are these: for protection from TNF-induced cell death (viability): 18 or 30 hours, FIG. 10. The protocol: as §1
For a further assay, the system named is PKCα. Put plainly: PKCα translocation in HSG cells (immunofluorescence, fractionation). The format is cell-based, human. The conditions noted are these: for PKCα translocation: 15 min after treatment. An excerpt:
In order to dissect the molecular pathways leading to the cell survival by lacritin, protein kinases and transcriptional factors were studied by Western blotting and immunofluorescence microscopy.
Images were acquired at 2-3 s intervals using LaserSharp2000 software (Bio-Rad) and store on disc for later analysis.

In a further assay the test system is NFATC1. Description: NFATC1 translocation in HSG cells (immunofluorescence). The conditions noted are these: for NFATC1 translocation: HSG and corneal epithelial cells. The format is cell-based, human. From the text: In order to dissect the molecular pathways leading to the cell survival by lacritin, protein kinases and transcriptional factors were studied by Western blotting and immunofluorescence microscopy. […] On the other hand, there were increased activities of transcriptional factors such as nuclear factor of activated T-cells (NFAT) and NF-kappaB. In FIG. 4, translocation of PKC alpha and NFAT was detected by immunofluorescence coupled with confocal microscopic imaging. In resting HSG cells (left three images), PKC alpha distributes mainly in cytosol and membrane. Similarly, NFATc1 was also found to localize largely in cytosol. Cellular co-location of PKC alpha and NFATc1 is apparent upon merging the two immunofluorescent images, as the merged cy3 and FITC labels produce distinctive yellow color.
Images were acquired at 2-3 s intervals using LaserSharp2000 software (Bio-Rad) and store on disc for later analysis. For translocation assays, HSG cells […] phorbol 12-myristate 13-acetate, […], then washed with phosphate-buffered saline, formaldehyde-fixed, blocked with phosphate-buffered saline containing 1% bovine serum albumin and 10% goat serum, incubated with anti-PKCα (C-20) or anti-NFATC1 (mab 7A6) (both from Santa Cruz Biotechnology Inc.; Santa Cruz, Calif.) followed by secondary Cy3-, FITC- or Alexa488-labeled antibodies and confocal microscopic visualization (Bio-Rad Radiance2100).

[2] abbreviates: lacritin treatment for 1 hour, immunofluorescence.

As for `Cn1c2ccccc2c2c3c(c4c5ccccc5n(CCC#N)c4c21)CNC3=O` [Go 6976], the “effect on TNF-α-induced caspase-9 activity” value in the assay on caspase-9 is “fail to block”. Further, the “effect on TNF-α-induced caspase-8 activity” value in the assay with caspase-8 is reported as “fail to block”. Further, the “protection from TNF-induced cell death (viability)” value (“protection” for short) in assay [1] is given as “no effect on viability loss”. In the assay on PKCα (pertussis toxin 100 ng/ml, Go 6976, U73122, U73343, cyclosporine 1 μM, nifedipine 10 μM), the “effect on lacritin-dependent PKCα translocation” value was “inhibited”. The “effect on lacritin-dependent NFATC1 translocation” value in the assay with NFATC1 (cyclosporine 1 μM, nifedipine 10 μM) is recorded as “inhibited”.

B1: N-24: deletion mutant comprising a deletion of the 24 amino terminal amino acids of lacritin (protein)
chain: DSTGADPAQEAGTSKPNEEISGPAEPASPPETTTTAQETSAAAVQGTAKVTSSRQELNPLKSIVEKSILLTEQALAKAGKGMHGGVPGGKQFIENGSEFAQKLLKKFSLLKPWA
modifications: homo sapiens
notes: deletion mutant comprising a deletion of the 24 amino terminal amino acids of lacritin
Consider B1, for which the “effect on TNF-α-induced caspase-9 activity” value with caspase-9 is recorded as “blocked”. Besides, in the assay on caspase-8, the “effect on TNF-α-induced caspase-8 activity” value is listed as “blocked”. Also, the “protection” value in assay [1] is listed as “protect”. Besides, the PKCα translocation entry in the assay with PKCα was “shifted PKCα primarily to the perinuclear Golgi region”. Moreover, in the assay with NFATC1, the NFATC1 translocation entry is “translocates into the nucleus”.

B2: lacritin: recombinant human lacritin from E. coli; mature 119 residue fragment (SEQ ID NO:10) of native lacritin SEQ ID NO:4 (protein, listed as Homo sapiens)
chain: EDASSDSTGADPAQEAGTSKPNEEISGPAEPASPPETTTTAQETSAAAVQGTAKVTSSRQELNPLKSIVEKSILLTEQALAKAGKGMHGGVPGGKQFIENGSEFAQKLLKKFSLLKPWA
In the case of B2, the “effect on TNF-α-induced caspase-9 activity” value in the assay on caspase-9 is given as “blocked”. Besides, in the assay on caspase-8, the “effect on TNF-α-induced caspase-8 activity” value is “completely blocked”. The “protection” value in assay [1] is “protect”. The “effect on TNF-α-induced cell death” value in assay [1] (lacritin 10 nM pretreatment) is “attenuated”. Moreover, in the assay with PKCα, the PKCα translocation result is listed as “shifted PKCα primarily to the perinuclear Golgi region”. In the assay on PKCα (about 5 minutes lacritin treatment, subcellular fractionation, Western blotting), the “PKC alpha at the cell membrane” value was “very little PKC alpha was detected at the cell membrane”. Also, the PKC alpha localization entry in the assay with PKCα (setting [2]) is “localize outside of the nuclear envelope”. Moreover, the NFATC1 translocation result with NFATC1 was “translocates into the nucleus”. Moreover, the NFAT localization result with NFATC1 (setting [2]) was “translocates into nuclear compartment”.
